The values below come from PMC9045149.

Test [1] deals with CD16/50L CBD (Y202A, W257A) fused to SmBit and to LgBit. The test is described as follows: split complementary luciferase assay (SmBit/LgBit) in C. difficile cells. The note with it: 4% (wt/vol) xylose for 2 h; furimazine substrate incubated for 5 min; parent: est. 6.0; read off a plot.
The target of test [2] is CD16/50L CBD F248A fused to SmBit and to LgBit. The description is as above. The note with it: 4% (wt/vol) xylose for 2 h; furimazine substrate incubated for 5 min; parent: est. 6.0; read off a plot.
Another test addresses PG-PS complex. The test is described as follows: co-precipitation (pull-down) with PG-PS complex, SDS-PAGE band quantification. The conditions noted are these: parent: est. 1.0; read off a plot.
For test [3], the target named is CD16/50L CBD W257A fused to SmBit and to LgBit. The test is described as follows: split complementary luciferase assay (SmBit/LgBit) in C. difficile cells. The conditions noted are these: 4% (wt/vol) xylose for 2 h; furimazine substrate incubated for 5 min; parent: est. 6.0; read off a plot.
The target of test [4] is CD16/50L CBD C234A fused to SmBit and to LgBit. Described as above. The conditions noted are these: 4% (wt/vol) xylose for 2 h; furimazine substrate incubated for 5 min; parent: est. 6.0; read off a plot.
The target in test [5] is CD16/50L CBD Q250A fused to SmBit and to LgBit. The description is as above. The conditions noted are these: 4% (wt/vol) xylose for 2 h; furimazine substrate incubated for 5 min; parent: est. 6.0; read off a plot.
In test [6] the target is 6xHis-tagged cell-wall binding domain of endolysin CD16/50L, wild type (Clostridioides difficile phage ϕHN50 (identical in ϕHN16-1)). As to the kind of experiment: SEC; Superdex 75 10/300 GL, 50 mM Tris-HCl (pH 8.0), 500 mM NaCl, 0.5 mL/min; approximately 2.5 mg/mL of each purified 6xHis-CBD variant injected separately; size from calibration with standard proteins.
The target of test [7] is CD16/50L CBD wild type fused to SmBit and to LgBit (CBD-SmBit/LgBit, plasmid pWP004) (Clostridioides difficile phage ϕHN50 (identical in ϕHN16-1)). The test is described as follows: split reporter (BiFC, NanoBiT); BitLuc^opt split luciferase in live C. difficile R20291; CBD-SmBit and CBD-LgBit co-expressed, induced with 4% (wt/vol) xylose for 2 h; Nano-Glo (furimazine) substrate, luminescence read.

The target of test [8] is CD16/50L CBD Y202A fused to SmBit and to LgBit. The test is described as follows: split complementary luciferase assay (SmBit/LgBit) in C. difficile cells. The note with it: 4% (wt/vol) xylose for 2 h; furimazine substrate incubated for 5 min; parent: est. 6.0; read off a plot.
Test [9] addresses CD16/50L CBD E239A fused to SmBit and to LgBit. Described as above. The note with it: 4% (wt/vol) xylose for 2 h; furimazine substrate incubated for 5 min; parent: est. 6.0; read off a plot.
The target in test [10] is CD16/50L CBD M260A fused to SmBit and to LgBit. Described as above. The conditions noted are these: 4% (wt/vol) xylose for 2 h; furimazine substrate incubated for 5 min; parent: est. 6.0; read off a plot.

Consider “CD16/50L CBD wild type fused to SmBit and to LgBit (CBD-SmBit/LgBit, plasmid pWP004) Y202A; W257A”, for which the response in [1] was 3.5 log RLU.
“CD16/50L CBD wild type fused to SmBit and to LgBit (CBD-SmBit/LgBit, plasmid pWP004) F248A”: the response in test [2] was 6 log RLU.
For the substance “6xHis-tagged cell-wall binding domain of endolysin CD16/50L, wild type Y202A; W257A”, the ratio to parent with PG-PS complex is 0.47.
On to “CD16/50L CBD wild type fused to SmBit and to LgBit (CBD-SmBit/LgBit, plasmid pWP004) W257A”, for which, in test [3], the response is 4.9 log RLU.
Take “CD16/50L CBD wild type fused to SmBit and to LgBit (CBD-SmBit/LgBit, plasmid pWP004) C234A”: in test [4], the response was 6 log RLU.
On to “CD16/50L CBD wild type fused to SmBit and to LgBit (CBD-SmBit/LgBit, plasmid pWP004) Q250A”, for which, in [5], the response amounted to 6 log RLU.
On to “6xHis-tagged cell-wall binding domain of endolysin CD16/50L, wild type (domain or fragment)”, for which the stoichiometry N in [6] turned out to be 2.
Turning to “CD16/50L CBD wild type fused to SmBit and to LgBit (CBD-SmBit/LgBit, plasmid pWP004) (domain or fragment)”, the fold increase of the luciferase signal over the single-fragment controls in [7] is below 300 fold.
Regarding “CD16/50L CBD wild type fused to SmBit and to LgBit (CBD-SmBit/LgBit, plasmid pWP004) Y202A”, the response in test [8] was 5.9 log RLU.
With “6xHis-tagged cell-wall binding domain of endolysin CD16/50L, wild type W257A”, in the test with PG-PS complex, the ratio to parent stood at 0.35.
As to “CD16/50L CBD wild type fused to SmBit and to LgBit (CBD-SmBit/LgBit, plasmid pWP004) E239A”, the response in [9] is 6.1 log RLU.
For the substance “CD16/50L CBD wild type fused to SmBit and to LgBit (CBD-SmBit/LgBit, plasmid pWP004) M260A”, the response in [10] was determined as 6 log RLU.

Broadly, the stoichiometry N is the number of molecules, sites or subunits per partner or assembly.
